Sequences and labels used below:
B1: GFP-DOR (human DOR/TP53INP2, full length) [modified: [35S]methionine label; [35S]methionine label] [human] / GST-LC3B (full-length proform) [human] (parent complex)
chain 1: MFQRLSSLFFSTPSPPEDPDCPRAFVSEEDEVDGWLIIDLPDSYAAPPSPGAAPAPAGRPPPAPSLMDESWFVTPPACFTAEGPGLGPARLQSSPLEDLLIEHPSMSVYVTGSTIVLEPGSPSPLPDAALPDGDLSEGELTPARREPRAARHAAPLPARAALLEKAGQVRRLQRARQRAERHALSAKAVQRQNRARESRPRRSKNQSSFIYQPCQRQFNY
chain 2: not shown

In this test the parent is B1. In words: GST pull-down; in vitro translated [35S]methionine-labelled GFP fusion; three independent experiments; parent: 21; read off a plot.
As to chain 1 W35A, chain 1 I38A, the response is about 3.4 % Binding.
